Assay results taken from patent publication US20100040604A1.

Tests used:
[1] = target: recombinant human TNFα (rhTNFα) (human) (UniProt P01375); experiment: cell-based or functional assay
[2] = target: recombinant human TNFα (rhTNFα) (human) (UniProt P01375); experiment: SPR (BIAcore), biotinylated rhTNFα on streptavidin chip; [Ab] 400 nM
[3] = target: recombinant human TNFα (rhTNFα) (human) (UniProt P01375); experiment: SPR (BIAcore), biotinylated rhTNFα on streptavidin chip; average over the concentrations
[4] = target: recombinant human TNFα (rhTNFα) (human) (UniProt P01375); experiment: SPR (BIAcore), summary table
[5] = target: recombinant human TNFα (rhTNFα) (human) (UniProt P01375); experiment: SPR (BIAcore), biotinylated rhTNFα on streptavidin chip; [Ab] 100 nM
[6] = target: recombinant human TNFα (rhTNFα) (human) (UniProt P01375); experiment: SPR (BIAcore), biotinylated rhTNFα on streptavidin chip; [Ab] 6 nM
[7] = target: recombinant human TNFα (rhTNFα) (human) (UniProt P01375); experiment: SPR (BIAcore), biotinylated rhTNFα on streptavidin chip; [Ab] 50 nM
[8] = target: recombinant human TNFα (rhTNFα) (human) (UniProt P01375); experiment: SPR (BIAcore), biotinylated rhTNFα on streptavidin chip; [Ab] 13 nM
[9] = target: recombinant human TNFα (rhTNFα) (human) (UniProt P01375); experiment: SPR (BIAcore), biotinylated rhTNFα on streptavidin chip; [Ab] 3 nM
[10] = target: recombinant human TNFα (rhTNFα) (human) (UniProt P01375); experiment: SPR (BIAcore), biotinylated rhTNFα on streptavidin chip; [Ab] 200 nM
[11] = target: recombinant human TNFα (rhTNFα) (human) (UniProt P01375); experiment: SPR (BIAcore), biotinylated rhTNFα on streptavidin chip; [Ab] 25 nM

recombinant human TNFα (rhTNFα) (human), sequence (P01375 77-233 limits assumed): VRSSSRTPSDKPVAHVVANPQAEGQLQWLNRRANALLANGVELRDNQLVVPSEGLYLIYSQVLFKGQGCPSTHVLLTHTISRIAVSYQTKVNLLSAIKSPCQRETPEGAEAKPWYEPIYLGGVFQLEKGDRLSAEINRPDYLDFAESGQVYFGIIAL

Substance: MAK 195 F(ab′)2 fragment (murine anti-hTNFα mAb)
- IC50, neutralization of TNFα-induced L929 cytotoxicity [1]: 0.062 nM
- Ab, bound, RUs [2]: 881 RU
- koff [2]: 5.38e-05 s⁻¹
- rhTNFα/Ab [2]: 1.2
- koff [3]: 4.94e-05 s⁻¹
- Kd [4]: 0.46 nM
- Stoichiometry [4]: 1.4
- koff [4]: 8.7e-05 s⁻¹
- kon [4]: 190000 M⁻¹ s⁻¹
- Ab, bound, RUs [5]: 1140 RU
- koff [5]: 3.54e-05 s⁻¹
- rhTNFα/Ab [5]: 1.39
- Ab, bound, RUs [6]: 433 RU
- koff [6]: 7.37e-05 s⁻¹
- rhTNFα/Ab [6]: 0.47
- Ab, bound, RUs [7]: 1110 RU
- koff [7]: 3.67e-05 s⁻¹
- rhTNFα/Ab [7]: 1.32
- Ab, bound, RUs [8]: 708 RU
- koff [8]: 3.66e-05 s⁻¹
- rhTNFα/Ab [8]: 0.78
- Ab, bound, RUs [9]: 231 RU
- koff [9]: 6.95e-05 s⁻¹
- rhTNFα/Ab [9]: 0.26
- Ab, bound, RUs [10]: 1080 RU
- koff [10]: 4.54e-05 s⁻¹
- rhTNFα/Ab [10]: 1.38
- Ab, bound, RUs [11]: 957 RU
- koff [11]: 4.41e-05 s⁻¹
- rhTNFα/Ab [11]: 1.09
